The target in assay [1] is 1059-SOSIP (soluble SOSIP Env trimer of the transmitted/founder HIV-1 strain 1059) (HIV-1 (strain 1059, transmitted/founder)). The assay is described as follows: cryo-EM structure; unliganded SOSIP trimers purified by GNL/SEC; 2.16 mg/mL 1059-SOSIP, 3.64 mg/mL BG505-SOSIP; 0.085 mM DDM before vitrification; refined with C1 symmetry.
For assay [2], the target named is BG505-SOSIP (soluble SOSIP Env trimer of HIV-1 strain BG505) (HIV-1 (strain BG505)) (UniProt Q2N0S6). The description is as above.

The results in this text go back to paper PMC11347675.

The term stoichiometry N denotes a count of units in the complex or per binding partner.

In the case of “1059-SOSIP (soluble SOSIP Env trimer of the transmitted/founder HIV-1 strain 1059) (complex)”, the stoichiometry N in assay [1] was determined as 3.

For “BG505-SOSIP (soluble SOSIP Env trimer of HIV-1 strain BG505) (from UniProt Q2N0S6 1-860; Q2N0S6 1-860) (complex)”, the stoichiometry N in assay [2] was 3.
